For test [1], the target named is Programmed cell death protein 1 (PD1), human (human) (UniProt Q15116). Put plainly: cell-based or functional assay.
The target in test [2] is Cytotoxic T-lymphocyte-associated protein 4 (CTLA4), human (human) (UniProt P16410). Put plainly: cell-based or functional assay.

We go through one substance from patent publication US20250115667A1.

Consider XmAb20717 (bispecific antibody), for which the IL-2 secretion from SEB-stimulated human PBMC (ELISA), fold increase versus a mixture of XENP20111 and XENP20059 in test [1] and in test [2] was 1.6 fold each time.
